# Source: publication PMC10098051
# Target: PeSy1‐His recombinant protein (Saccharothrix yanglingensis Hhs.015)
# Experiment: MST; PeSy1‐His labelled with protein labelling kit RED, in PBST (PBS with 0.05% Tween 20); serially diluted RSy1‐GST in 16 standard treated capillaries; Monolith NT.115, excitation power 40%, MST power medium; GST as reference control; three biological repeats
substance,measurement,value
RSy1‐GST recombinant protein (natural protein),Kd,8.77 µM
